In patent US20220143024A1, “METHODS OF USING IMIPRIDONES” (Board of Regents, The University of Texas System, priority 2019, published 2022):

Legend:
Test in all cases: BioID-MS
COX4I1 (human) = COX4I1 (human) (UniProt P13073)
SHMT2 (human) = SHMT2 (human) (UniProt P34897)
METTL17 (human) = METTL17 (human) (UniProt Q9H7H0)
COQ8A (human) = COQ8A (human) (UniProt Q8NI60)
MICU2 (human) = MICU2 (human) (UniProt Q8IYU8)
AIFM1 (human) = AIFM1 (human) (UniProt O95831)
MRPS26 (human) = MRPS26 (human) (UniProt Q9BYN8)
OGDH (human) = OGDH (human) (UniProt Q02218)
MRPL21 (human) = MRPL21 (human) (UniProt Q7Z2W9)
ACAD9 (human) = ACAD9 (human) (UniProt Q9H845)
NUBPL (human) = NUBPL (human) (UniProt Q8TB37)
PYCR1 (human) = PYCR1 (human) (UniProt P32322)
GATB (human) = GATB (human) (UniProt O75879)
NDUFV3 (human) = NDUFV3 (human) (UniProt P56181)
HSPA1L (human) = HSPA1L (human) (UniProt P34931)
CHCHD3 (human) = CHCHD3 (human) (UniProt Q9NX63)
GUF1 (human) = GUF1 (human) (UniProt Q8N442)
POLG (human) = POLG (human) (UniProt P54098)
HINT2 (human) = HINT2 (human) (UniProt Q9BX68)
LARS2 (human) = LARS2 (human) (UniProt Q15031)
ACADSB (human) = ACADSB (human) (UniProt P45954)
ACADM (human) = ACADM (human) (UniProt P11310)
HADH (human) = HADH (human) (UniProt Q16836)
PDIA3 (human) = PDIA3 (human) (UniProt P30101)
DHTKD1 (human) = DHTKD1 (human) (UniProt Q96HY7)
NFS1 (human) = NFS1 (human) (UniProt Q9Y697)
ECHS1 (human) = ECHS1 (human) (UniProt P30084)
XPNPEP3 (human) = XPNPEP3 (human) (UniProt Q9NQH7)
MRPS6 (human) = MRPS6 (human) (UniProt P82932)
RPS15A (human) = RPS15A (human) (UniProt P62244)
NDUFS6 (human) = NDUFS6 (human) (UniProt O75380)
HSD17B8 (human) = HSD17B8 (human) (UniProt Q92506)
SFXN4 (human) = SFXN4 (human) (UniProt Q6P4A7)
NDUFAF2 (human) = NDUFAF2 (human) (UniProt Q8N183)
TARS2 (human) = TARS2 (human) (UniProt Q9BW92)
GRPEL1 (human) = GRPEL1 (human) (UniProt Q9HAV7)
NFUl (human) = NFUl (human) (UniProt Q9UMS0)
MTHFD1L (human) = MTHFD1L (human) (UniProt Q6UB35)
MRPS23 (human) = MRPS23 (human) (UniProt Q9Y3D9)
SUCLA2 (human) = SUCLA2 (human) (UniProt Q9P2R7)
SPRYD4 (human) = SPRYD4 (human) (UniProt Q8WW59)
ZADH2 (human) = ZADH2 (human) (UniProt Q8N4Q0)
COQ6 (human) = COQ6 (human) (UniProt Q9Y2Z9)
ABCB10 (human) = ABCB10 (human) (UniProt Q9NRK6)
GRSF1 (human) = GRSF1 (human) (UniProt Q12849)
ABCB7 (human) = ABCB7 (human) (UniProt O75027)
ACSS1 (human) = ACSS1 (human) (UniProt Q9NUB1)
MGME1 (human) = MGME1 (human) (UniProt Q9BQP7)
PPIF (human) = PPIF (human) (UniProt P30405)
PDE12 (human) = PDE12 (human) (UniProt Q6L8Q7)
PNPT1 (human) = PNPT1 (human) (UniProt Q8TCS8)
TFAM (human) = TFAM (human) (UniProt Q00059)
HIBCH (human) = HIBCH (human) (UniProt Q6NVY1)
ACADVL (human) = ACADVL (human) (UniProt P49748)
C12orf10 (human) = C12orf10 (human) (UniProt Q9HB07)
RG9MTD1 (human) = RG9MTD1 (human) (UniProt Q7L0Y3)
GTPBP3 (human) = GTPBP3 (human) (UniProt Q969Y2)
CDK5RAP1 (human) = CDK5RAP1 (human) (UniProt Q96SZ6)
Sequence of CDK5RAP1 (human) (Q96SZ6 34-601 limits assumed): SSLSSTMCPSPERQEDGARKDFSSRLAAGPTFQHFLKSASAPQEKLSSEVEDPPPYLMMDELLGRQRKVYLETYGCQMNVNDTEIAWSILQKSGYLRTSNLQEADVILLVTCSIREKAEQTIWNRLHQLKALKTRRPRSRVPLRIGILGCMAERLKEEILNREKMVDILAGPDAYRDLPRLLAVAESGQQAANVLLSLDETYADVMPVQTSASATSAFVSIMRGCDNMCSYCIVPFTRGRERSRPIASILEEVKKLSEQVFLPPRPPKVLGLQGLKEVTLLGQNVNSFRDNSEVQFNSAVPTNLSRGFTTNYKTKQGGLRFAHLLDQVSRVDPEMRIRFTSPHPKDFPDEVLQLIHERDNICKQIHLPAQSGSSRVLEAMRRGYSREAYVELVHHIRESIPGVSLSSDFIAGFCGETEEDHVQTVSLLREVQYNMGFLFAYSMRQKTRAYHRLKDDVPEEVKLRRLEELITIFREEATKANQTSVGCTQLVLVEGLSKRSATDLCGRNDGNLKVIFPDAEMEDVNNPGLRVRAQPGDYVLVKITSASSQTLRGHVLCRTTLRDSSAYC

Sequence of ABCB10 (human) (Q9NRK6 106-738 limits assumed): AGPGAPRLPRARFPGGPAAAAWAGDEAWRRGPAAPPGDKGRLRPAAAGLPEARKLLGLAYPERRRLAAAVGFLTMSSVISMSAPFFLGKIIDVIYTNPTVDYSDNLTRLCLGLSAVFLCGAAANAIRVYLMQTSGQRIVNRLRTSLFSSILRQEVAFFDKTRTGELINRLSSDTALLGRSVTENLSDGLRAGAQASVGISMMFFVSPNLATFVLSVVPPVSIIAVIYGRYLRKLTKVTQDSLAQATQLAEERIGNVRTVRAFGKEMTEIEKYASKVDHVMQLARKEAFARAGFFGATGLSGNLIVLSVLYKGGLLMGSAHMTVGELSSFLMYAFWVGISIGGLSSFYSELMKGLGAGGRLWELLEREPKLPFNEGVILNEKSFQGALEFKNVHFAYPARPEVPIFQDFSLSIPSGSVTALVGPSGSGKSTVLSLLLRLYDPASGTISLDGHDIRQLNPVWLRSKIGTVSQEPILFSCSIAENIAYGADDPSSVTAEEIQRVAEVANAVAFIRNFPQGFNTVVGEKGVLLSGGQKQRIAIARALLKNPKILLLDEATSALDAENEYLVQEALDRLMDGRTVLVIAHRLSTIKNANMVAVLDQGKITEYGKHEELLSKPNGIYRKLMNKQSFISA
Sequence of SUCLA2 (human) (Q9P2R7 53-463 limits assumed): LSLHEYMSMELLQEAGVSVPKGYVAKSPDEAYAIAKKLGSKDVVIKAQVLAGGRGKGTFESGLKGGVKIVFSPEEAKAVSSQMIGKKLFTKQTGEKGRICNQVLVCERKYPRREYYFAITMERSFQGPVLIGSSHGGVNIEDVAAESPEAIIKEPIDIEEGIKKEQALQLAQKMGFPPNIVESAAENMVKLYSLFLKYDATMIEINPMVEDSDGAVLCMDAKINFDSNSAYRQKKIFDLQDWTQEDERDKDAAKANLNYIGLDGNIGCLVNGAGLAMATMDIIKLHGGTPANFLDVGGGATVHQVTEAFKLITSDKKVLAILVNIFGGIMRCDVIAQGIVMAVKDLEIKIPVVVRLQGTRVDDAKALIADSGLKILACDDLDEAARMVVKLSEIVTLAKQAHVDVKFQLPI
Sequence of HSD17B8 (human) (Q92506 whole entry): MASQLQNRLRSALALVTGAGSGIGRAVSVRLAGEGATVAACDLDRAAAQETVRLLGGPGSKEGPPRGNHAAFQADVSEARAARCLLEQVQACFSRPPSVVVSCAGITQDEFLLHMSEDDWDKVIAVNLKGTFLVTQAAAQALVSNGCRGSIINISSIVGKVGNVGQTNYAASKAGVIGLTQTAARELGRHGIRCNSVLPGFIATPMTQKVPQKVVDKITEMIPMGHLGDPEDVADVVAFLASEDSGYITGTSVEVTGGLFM
Sequence of LARS2 (human) (Q15031 whole entry): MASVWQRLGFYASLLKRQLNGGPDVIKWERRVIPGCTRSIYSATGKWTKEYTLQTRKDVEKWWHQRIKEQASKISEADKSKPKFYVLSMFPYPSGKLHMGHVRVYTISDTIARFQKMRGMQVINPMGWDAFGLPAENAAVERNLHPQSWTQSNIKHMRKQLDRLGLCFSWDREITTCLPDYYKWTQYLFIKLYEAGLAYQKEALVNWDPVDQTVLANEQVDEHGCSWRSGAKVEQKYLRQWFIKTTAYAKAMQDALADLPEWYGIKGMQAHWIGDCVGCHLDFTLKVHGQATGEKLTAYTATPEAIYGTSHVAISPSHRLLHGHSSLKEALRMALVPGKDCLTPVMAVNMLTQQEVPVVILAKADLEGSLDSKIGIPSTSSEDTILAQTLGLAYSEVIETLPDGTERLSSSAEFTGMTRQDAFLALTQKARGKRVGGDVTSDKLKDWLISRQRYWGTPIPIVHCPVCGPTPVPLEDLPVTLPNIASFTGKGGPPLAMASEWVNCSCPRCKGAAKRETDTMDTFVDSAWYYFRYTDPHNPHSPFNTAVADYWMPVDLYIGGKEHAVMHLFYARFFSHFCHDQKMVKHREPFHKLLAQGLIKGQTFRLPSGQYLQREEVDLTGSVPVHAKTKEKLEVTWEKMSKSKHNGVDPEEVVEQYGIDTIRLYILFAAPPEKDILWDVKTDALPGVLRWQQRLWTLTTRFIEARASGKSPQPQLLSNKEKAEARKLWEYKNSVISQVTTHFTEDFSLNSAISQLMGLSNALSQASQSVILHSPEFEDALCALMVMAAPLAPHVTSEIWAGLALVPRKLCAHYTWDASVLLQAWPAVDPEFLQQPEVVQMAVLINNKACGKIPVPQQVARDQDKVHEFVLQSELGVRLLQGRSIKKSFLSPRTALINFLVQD
Sequence of NFUl (human) (Q9UMS0 10-254 limits assumed): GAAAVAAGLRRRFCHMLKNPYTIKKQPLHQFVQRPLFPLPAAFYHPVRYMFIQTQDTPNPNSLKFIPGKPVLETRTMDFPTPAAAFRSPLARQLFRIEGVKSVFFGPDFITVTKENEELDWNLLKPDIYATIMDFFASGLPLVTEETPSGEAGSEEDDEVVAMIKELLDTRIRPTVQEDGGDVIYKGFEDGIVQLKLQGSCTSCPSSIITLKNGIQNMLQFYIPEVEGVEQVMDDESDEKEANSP
Sequence of POLG (human) (P54098 whole entry): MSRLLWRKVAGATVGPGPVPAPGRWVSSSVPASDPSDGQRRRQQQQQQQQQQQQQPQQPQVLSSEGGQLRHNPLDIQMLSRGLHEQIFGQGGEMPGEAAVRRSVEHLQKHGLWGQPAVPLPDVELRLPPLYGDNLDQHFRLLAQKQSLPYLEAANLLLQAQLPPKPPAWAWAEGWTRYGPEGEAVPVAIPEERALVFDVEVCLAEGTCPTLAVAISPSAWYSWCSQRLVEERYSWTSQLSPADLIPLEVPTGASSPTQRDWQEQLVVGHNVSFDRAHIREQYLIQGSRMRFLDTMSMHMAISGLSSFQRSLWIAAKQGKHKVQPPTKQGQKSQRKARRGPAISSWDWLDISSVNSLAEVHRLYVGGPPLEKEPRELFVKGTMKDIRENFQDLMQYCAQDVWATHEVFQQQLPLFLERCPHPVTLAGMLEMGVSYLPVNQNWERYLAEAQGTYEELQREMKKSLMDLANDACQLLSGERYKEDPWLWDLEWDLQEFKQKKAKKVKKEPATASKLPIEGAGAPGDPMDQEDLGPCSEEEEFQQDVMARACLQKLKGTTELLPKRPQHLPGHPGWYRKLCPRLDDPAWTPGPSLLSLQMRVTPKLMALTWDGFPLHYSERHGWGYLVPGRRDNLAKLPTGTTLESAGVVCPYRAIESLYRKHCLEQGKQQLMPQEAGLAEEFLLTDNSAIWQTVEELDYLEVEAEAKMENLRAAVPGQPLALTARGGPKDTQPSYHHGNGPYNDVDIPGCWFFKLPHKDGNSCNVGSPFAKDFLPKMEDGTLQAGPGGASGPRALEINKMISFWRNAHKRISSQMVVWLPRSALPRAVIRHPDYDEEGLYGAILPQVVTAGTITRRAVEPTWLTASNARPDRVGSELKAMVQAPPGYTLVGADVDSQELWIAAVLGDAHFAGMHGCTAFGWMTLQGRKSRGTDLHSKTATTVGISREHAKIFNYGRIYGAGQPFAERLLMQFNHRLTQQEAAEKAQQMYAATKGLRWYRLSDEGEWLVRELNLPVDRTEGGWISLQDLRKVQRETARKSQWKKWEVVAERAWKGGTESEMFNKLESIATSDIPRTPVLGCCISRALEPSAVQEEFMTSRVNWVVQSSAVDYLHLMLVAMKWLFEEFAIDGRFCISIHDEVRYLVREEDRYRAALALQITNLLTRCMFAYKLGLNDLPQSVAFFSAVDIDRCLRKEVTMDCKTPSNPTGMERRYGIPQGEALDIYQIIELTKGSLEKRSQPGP
Sequence of SFXN4 (human) (Q6P4A7 2-337 limits assumed): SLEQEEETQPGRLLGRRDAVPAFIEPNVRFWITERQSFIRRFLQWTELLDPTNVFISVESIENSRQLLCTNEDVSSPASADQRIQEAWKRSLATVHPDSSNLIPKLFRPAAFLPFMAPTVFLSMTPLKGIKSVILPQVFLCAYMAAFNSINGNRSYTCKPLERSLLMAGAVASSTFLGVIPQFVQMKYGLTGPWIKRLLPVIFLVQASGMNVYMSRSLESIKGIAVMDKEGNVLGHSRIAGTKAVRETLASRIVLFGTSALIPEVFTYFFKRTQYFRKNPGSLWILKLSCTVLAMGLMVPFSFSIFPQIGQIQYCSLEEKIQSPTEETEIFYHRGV
Sequence of MGME1 (human) (Q9BQP7 whole entry): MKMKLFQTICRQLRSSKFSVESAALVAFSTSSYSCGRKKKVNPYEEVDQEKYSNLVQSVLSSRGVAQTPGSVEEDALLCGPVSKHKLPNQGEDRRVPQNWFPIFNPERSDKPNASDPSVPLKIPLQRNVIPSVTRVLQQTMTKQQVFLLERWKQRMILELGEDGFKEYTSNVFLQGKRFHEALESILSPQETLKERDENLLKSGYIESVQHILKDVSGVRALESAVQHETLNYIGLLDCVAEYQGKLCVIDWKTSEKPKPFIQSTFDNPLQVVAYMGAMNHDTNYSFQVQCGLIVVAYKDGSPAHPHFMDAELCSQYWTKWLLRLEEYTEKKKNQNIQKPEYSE

Log2 Fold change (vs control) (COX4I1 (human)): 0.17 log2 | Log2 Fold change (vs control) (SHMT2 (human)): -0.25 log2 | Log2 Fold change (vs control) (METTL17 (human)): -3.58 log2 | Log2 Fold change (vs control) (COQ8A (human)): -0.67 log2 | Log2 Fold change (vs control) (MICU2 (human)): -0.18 log2 | Log2 Fold change (vs control) (AIFM1 (human)): -2.32 log2 | Log2 Fold change (vs control) (MRPS26 (human)): -0.52 log2 | Log2 Fold change (vs control) (OGDH (human)): 1.67 log2 | Log2 Fold change (vs control) (MRPL21 (human)): -0.72 log2 | Log2 Fold change (vs control) (ACAD9 (human)): 1.18 log2 | Log2 Fold change (vs control) (NUBPL (human)): -2.58 log2 | Log2 Fold change (vs control) (PYCR1 (human)): 1.08 log2 | Log2 Fold change (vs control) (GATB (human)): -3.1 log2 | Log2 Fold change (vs control) (NDUFV3 (human)): 0.05 log2 | Log2 Fold change (vs control) (HSPA1L (human)): -0.71 log2 | Log2 Fold change (vs control) (CHCHD3 (human)): -2.46 log2 | Log2 Fold change (vs control) (GUF1 (human)): 0.38 log2 | Log2 Fold change (vs control) (POLG (human)): 0.26 log2 | Log2 Fold change (vs control) (HINT2 (human)): 0.09 log2 | Log2 Fold change (vs control) (LARS2 (human)): 0.1 log2 | Log2 Fold change (vs control) (ACADSB (human)): -0.2 log2 | Log2 Fold change (vs control) (ACADM (human)): -0.4 log2 | Log2 Fold change (vs control) (HADH (human)): 0.8 log2 | Log2 Fold change (vs control) (PDIA3 (human)): -0.41 log2 | Log2 Fold change (vs control) (DHTKD1 (human)): -0.12 log2 | Log2 Fold change (vs control) (NFS1 (human)): 0.25 log2 | Log2 Fold change (vs control) (ECHS1 (human)): -0.33 log2 | Log2 Fold change (vs control) (XPNPEP3 (human)): -0.31 log2 | Log2 Fold change (vs control) (MRPS6 (human)): -0.62 log2 | Log2 Fold change (vs control) (RPS15A (human)): -0.45 log2 | Log2 Fold change (vs control) (NDUFS6 (human)): -0.26 log2 | Log2 Fold change (vs control) (HSD17B8 (human)): -2.58 log2 | Log2 Fold change (vs control) (SFXN4 (human)): -0.38 log2 | Log2 Fold change (vs control) (NDUFAF2 (human)): -0.15 log2 | Log2 Fold change (vs control) (TARS2 (human)): -0.25 log2 | Log2 Fold change (vs control) (GRPEL1 (human)): 0 log2 | Log2 Fold change (vs control) (NFUl (human)): -0.32 log2 | Log2 Fold change (vs control) (MTHFD1L (human)): 0.25 log2 | Log2 Fold change (vs control) (MRPS23 (human)): -0.22 log2 | Log2 Fold change (vs control) (SUCLA2 (human)): -0.06 log2 | Log2 Fold change (vs control) (SPRYD4 (human)): 0.22 log2 | Log2 Fold change (vs control) (ZADH2 (human)): -1.46 log2 | Log2 Fold change (vs control) (COQ6 (human)): 0.62 log2 | Log2 Fold change (vs control) (ABCB10 (human)): -1.32 log2 | Log2 Fold change (vs control) (GRSF1 (human)): 1.91 log2 | Log2 Fold change (vs control) (ABCB7 (human)): -0.65 log2 | Log2 Fold change (vs control) (ACSS1 (human)): -1.46 log2 | Log2 Fold change (vs control) (MGME1 (human)): 0.44 log2 | Log2 Fold change (vs control) (PPIF (human)): 0.09 log2 | Log2 Fold change (vs control) (PDE12 (human)): 0.03 log2 | Log2 Fold change (vs control) (PNPT1 (human)): -0.07 log2 | Log2 Fold change (vs control) (TFAM (human)): 0.63 log2 | Log2 Fold change (vs control) (HIBCH (human)): 0.35 log2 | Log2 Fold change (vs control) (ACADVL (human)): 0.28 log2 | Log2 Fold change (vs control) (C12orf10 (human)): -3.75 log2 | Log2 Fold change (vs control) (RG9MTD1 (human)): 0.47 log2 | Log2 Fold change (vs control) (GTPBP3 (human)): -0.5 log2 | Log2 Fold change (vs control) (CDK5RAP1 (human)): -0.26 log2
Substance: FlagBirA-ClpP (Y118A) (from UniProt P06709 1-321; Q16740 57-277) (enzyme)
